Measured values taken from patent publication US20080234471A1.

Experiments:
GnGn-peptide [1] = biological target: GnGn-peptide
GnGn-peptide [2] = biological target: GnGn-peptide; remark: listed apart in the source

Specific activity (GnGn-peptide [1]) [mU/mg]	Rel. Activity (MM-peptide) [%]	Km-Value (GnGnF^6-peptide) [mM]	Km-Value (GnGn-peptide [2]) [mM]	Substance
43400				GlcNAc-α1,3-fucosyl transferase isolated from mung bean seedlings (enzyme)
	0	0.13	0.19	recombinant GlcNAc-α1,3-fucosyl transferase (enzyme)
